# Laboratory results as given in publication PMC8560813.
# What was measured:
# [1] = target: heme (acquired from hemoglobin resin); assay: visible spectroscopy after incubation with hemoglobin resin; conditions: mean difference before and after incubation with beads, three independent experiments; parent: est. 0.40; read off a plot
# [2] = target: bovine holo hemoglobin, P01966;P02070; assay: pull-down (hemoglobin resin, anti-His Western, band intensity quantified); conditions: three independent pull-down experiments; parent: est. 7.5; read off a plot
substance,measurement,setting,value
"apo HphA (hemophilin), N-terminal 6X His tagged, heme stripped by acid-acetone extraction (from UniProt A0A059ZRB8) H43A; H106A",response,[1],0.03 ΔAbsorbance
same,response,[2],1.5 % of Input
